Results: patent US20260232732A1 (FUNDACI INSTITUT DE RECERCA CONTRA LA LEUC MIA JOSEP …, published 2026)
Values belong to the binder of their own block, whether it stands above or below them. Where no end group is shown, it is not given here. The star is where a group is joined. Biotin = O=C1N[C@H]2[C@H](CS[C@H]2CCCCC(=O)*)N1

Assays:
[1] = molecular target: T1, biotin-peptide TSSMEDYVNF (human); assay: ELISA biotin-peptide; scFv 1.25 ug/mL; repI
T1 peptide: Biotin-TSSMEDYVNF
Protocol: (§1) The peptides were synthesized naked or with a N-terminal Biotin modification with a purity of >98%. All four scFvs were verified by ELISA that can be detected with anti-His antibodies. ELISA was performed for scFv-peptide binding validation. Briefly, naked peptides were coated (50 μg/mL) in 0.58M carbonate-bicarbonate buffer pH9.5, 100 μL/well, 4° C. O/N. Then after blocking (3% BSA-PBS, 300 μL/well 37° C. 1.5 h) and washing (PBS+Tween-20 0.05% v/v (0.05% PBST), wells were incubated with each purified scFv antibody at concentration of 1 μg/mL in PBS at 37° C. 1 h. After washing (0.05% PBST), wells were incubated with secondary antibodies (goat anti-His IgG-HRP) in PBS, 37° C., 30 min. After washing, and incubation with TMB substrate, reactions were stopped with 2M HCl and reading was quantified at OD450.
(§2) ELISA with biotin-conjugated peptides (5 μg/mL) was performed very similar to described above with minor modifications.
(§3) A full curve ELISA was performed for each positive scFv/biotin-peptide pair in order to confirm previous results. Tables 15-17 show ELISA results of the dose-dependent full curve for each positive peptide with scFv “CCR9_HUM”, “Comp-2” and “Comp-3”, respectively.

[2] = molecular target: T2, biotin-peptide SSMEDYVNFN (human); assay: ELISA biotin-peptide; scFv 1.25 ug/mL; repI
T2 peptide: Biotin-SSMEDYVNFN
Protocol: as §1, §2, §3

[3] = molecular target: T3, biotin-peptide MEDYVNFNFT (human); assay: ELISA biotin-peptide; scFv 1.25 ug/mL; repI
T3 peptide: Biotin-MEDYVNFNFT
Protocol: as §1, §2, §3

[4] = molecular target: T4, biotin-peptide SMEDYVNFNF (human); assay: ELISA biotin-peptide; scFv 1.25 ug/mL; repI
T4 peptide: Biotin-SMEDYVNFNF
Protocol: as §1, §2, §3

[5] = molecular target: T1, biotin-peptide TSSMEDYVNF; assay: ELISA biotin-peptide; scFv 0.3125 ug/mL; repI
Protocol: as §1, §2, §3

[6] = molecular target: T2, biotin-peptide SSMEDYVNFN; assay: ELISA biotin-peptide; scFv 0.3125 ug/mL; repI
Protocol: as §1, §2, §3

[7] = molecular target: T3, biotin-peptide MEDYVNFNFT; assay: ELISA biotin-peptide; scFv 0.3125 ug/mL; repI
Protocol: as §1, §2, §3

[8] = molecular target: T4, biotin-peptide SMEDYVNFNF; assay: ELISA biotin-peptide; scFv 0.3125 ug/mL; repI
Protocol: as §1, §2, §3

[9] = molecular target: T5, Pep1-48, N-terminal domain 1 of CCR9, amino acids 1 to 48 (human); assay: BLI, His-tagged scFv on NTA biosensor, Pep1-48 as analyte, 1:1 global fit; paragraph 309 says that Comp-1 does not bind, in agreement with the BLI results of Table 11
T5 construct: Chemically synthesized (Genscript), purity >75%; also called CCR9 N-terminal 1-48 peptide
T5 peptide: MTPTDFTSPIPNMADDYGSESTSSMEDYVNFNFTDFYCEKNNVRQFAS
Protocol: The affinity between the CCR9-N-terminal domain 1 of CCR9 and the different scFvs was determined by Bio-Layer Interferometry (BLI), a technique that allows quantitative and qualitative measurement of biomolecular interactions in real-time. Briefly, scFv were immobilized onto NTA Biosensor (Sartorius) and quantification was performed in an Octet RED384 (Sartorius). scFv were dissolved in PBS (150 mM NaCl, 38 mM Na2HPO4, 12 mM NaH2PO4, pH 7.2) and a buffer containing 0.03% Tween-20 in PBS, pH 7.2 was used for baseline steps.

[10] = molecular target: T6, naked peptide 1b MEDYVNFNFTDFYCEKNNVRQFAS (human); assay: ELISA, naked peptide coated
T6 construct: also called region amino acids 25 to 48
T6 peptide: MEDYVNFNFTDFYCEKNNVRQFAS
Protocol: as §1

[11] = molecular target: T7, naked peptide 1a MTPTDFTSPIPNMADDYGSESTSS (human); assay: ELISA, naked peptide coated
T7 construct: also called region 1-24
T7 peptide: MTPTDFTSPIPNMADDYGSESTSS
Protocol: as §1

[12] = molecular target: T8, Peptide 2, non-conjugated (GSESTSSMED-C) (human); assay: ELISA; Ab 1 ug/mL; repI
T8 construct: With the extra C-terminal Cys
T8 peptide: GSESTSSMEDC
Protocol: (§4) In brief, plates with each non-conjugated peptide (50 μg/mL) or BSA-conjugated peptide (5 μg/mL) were coated in 0.58M carbonate-bicarbonate buffer pH9.5, 100 μL/well, at 4° C. […] After washing, wells were incubated with the 3, 3′,5,5′-Tetramethylbenzidine (TMB) HRP substrate and reactions were stopped with 2M HCl and OD450 was recorded.

[13] = molecular target: T9, Peptide 1-BSA (MADDYGSEST-C conjugated to BSA) (human); assay: ELISA; Ab 1 ug/mL; repI
T9 peptide: MADDYGSESTC(BSA)
Protocol: as §4

[14] = molecular target: T10, Peptide 3, non-conjugated (SSMEDYVNFN-C) (human); assay: ELISA; Ab 1 ug/mL; repI
T10 construct: With the extra C-terminal Cys
T10 peptide: SSMEDYVNFNC
Protocol: as §4

[15] = molecular target: T11, Peptide 2-BSA (GSESTSSMED-C conjugated to BSA) (human); assay: ELISA; Ab 1 ug/mL; repI
T11 peptide: GSESTSSMEDC(BSA)
Protocol: as §4

[16] = molecular target: T12, Peptide 4-BSA (SMEDYVNFNF-C conjugated to BSA) (human); assay: ELISA; Ab 1 ug/mL; repI
T12 peptide: SMEDYVNFNFC(BSA)
Protocol: as §4

[17] = molecular target: T13, Peptide 3-BSA (SSMEDYVNFN-C conjugated to BSA) (human); assay: ELISA; Ab 1 ug/mL; repI
T13 peptide: SSMEDYVNFNC(BSA)
Protocol: as §4

[18] = molecular target: T14, antigen peptide-BSA (immunisation peptide #1 MADDYGSESTSSMEDYVNFNF-C conjugated to BSA) (human, extra C-terminal Cys conjugated to BSA); assay: ELISA; Ab 1 ug/mL; repI
T14 construct: also called Positive control antigen peptide-BSA; MADDY peptide
T14 peptide: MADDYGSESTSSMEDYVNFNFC
Protocol: as §4

[19] = molecular target: T15, BSA (negative control coating) (bovine, UniProt P02769 25-607); assay: ELISA; Ab 1 ug/mL; repI
T15 construct: also called Negative control BSA
Protocol: as §4

[20] = molecular target: T16, Peptide 1, non-conjugated (MADDYGSEST-C) (human); assay: ELISA; Ab 1 ug/mL; repI
T16 construct: With the extra C-terminal Cys
T16 peptide: MADDYGSESTC
Protocol: as §4

[21] = molecular target: T17, Peptide 4, non-conjugated (SMEDYVNFNF-C) (human); assay: ELISA; Ab 1 ug/mL; repI
T17 construct: With the extra C-terminal Cys
T17 peptide: SMEDYVNFNFC
Protocol: as §4

T15 sequence (P02769 25-607 limits assumed): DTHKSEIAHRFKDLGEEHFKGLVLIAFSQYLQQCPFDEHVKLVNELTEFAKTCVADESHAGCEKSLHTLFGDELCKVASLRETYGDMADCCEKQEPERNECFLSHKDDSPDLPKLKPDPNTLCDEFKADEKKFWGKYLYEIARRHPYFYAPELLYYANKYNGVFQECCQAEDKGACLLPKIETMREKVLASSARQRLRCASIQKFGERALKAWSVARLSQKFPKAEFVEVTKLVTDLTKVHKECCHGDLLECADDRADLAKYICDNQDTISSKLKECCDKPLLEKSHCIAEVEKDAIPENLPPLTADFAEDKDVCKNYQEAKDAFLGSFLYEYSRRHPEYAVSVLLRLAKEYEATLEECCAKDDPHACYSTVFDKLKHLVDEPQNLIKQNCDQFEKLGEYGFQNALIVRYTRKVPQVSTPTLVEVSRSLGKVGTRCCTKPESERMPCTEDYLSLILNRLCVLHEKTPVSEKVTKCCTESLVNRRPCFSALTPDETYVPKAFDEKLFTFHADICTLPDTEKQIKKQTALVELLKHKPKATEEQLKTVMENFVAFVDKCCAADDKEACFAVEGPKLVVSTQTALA

OD450 [1]: 1.18 OD
OD450 [2]: 1.74 OD
OD450 [3]: 1.54 OD
OD450 [4]: 1.73 OD
OD450 [5]: 0.46 OD
OD450 [6]: 1.69 OD
OD450 [7]: 1.47 OD
OD450 [8]: 1.63 OD
B1: CCR9_HUM2 scFv (humanized anti-CCR9 scFv, SEQ ID NO: 17 with C-terminal 6xHis tag) (scFv)
scFv: QVQLVQSGAEVKKPGASVKVSCTASGYSFTDYIIYWVKQAHGQSLEWMGYIDPNNYNTRYSQKFQGKVTITVDKSSTSAYMELNSLTSDDTAVYYCARDVYWGQGTTVTVSSGGGGSGGGGSGGGGSGGGGSDVVMTQTPLSLSVTPGQPASISCRSSQSLVHSNGKTYLQWYLQKPGQSPKLLIYKVSNRFSGVPDRFSGSGSGTDFTLKISRVEAEDVGVYFCAQSTHVWTFGGGTKVEIKRAHHHHHH

binding result [9]: no binding
binding result [10]: no binding
binding result [11]: no binding
B2: Comparative antibody 1 (Comp-1) scFv, SEQ ID NO: 10 from WO2023/037125 A1, His-tagged (scFv)
scFv: QVQLKESGPGLVQPSQTLSLTCTVSGFSVASYDMHWVRLPPGKGLEWMGIIWANGNTHYNSGLKSRLSISRDTSKSQVFLKMNSLQTEDTAIYFCTRGGFAYWGQGTLVTVSSGGGGSGGGGSGGGGSGGGGSDVVMTQTPVSLSVSLGGQVSISCRSSQSLVHNNGNTYLSWYLQKPGQSPQLLIYKVSNRFSGVSDRFSGSGSGTDFTLKISRVEPDDLGVYYCGQGTQYPTFGGGTKLELKHHHHHH

OD450 [12]: 0.03 OD
OD450 [13]: 0.04 OD
OD450 [14]: 2.06 OD
OD450 [15]: 0.03 OD
OD450 [16]: 2.73 OD
OD450 [17]: 2.17 OD
OD450 [18]: 2.58 OD
OD450 [19]: 0.02 OD
OD450 [20]: 0.02 OD
OD450 [21]: 2.49 OD
B3: anti-CCR9 antibody clone 115 (murine, from hybridoma #115) (antibody, V domains shown)
VH: QVQLKQSGPELVKPGTSVRVSCTASGYSFTDYIIYWVKQSHGRSLEWIGYIDPNNYNTRYSQKFKGKATLTVDKSSTSAFMHLNSLTSDDSAVYYCARDVYWGQGTTLTVSS
VL: DVVMTQTPLSLTVSLGDQASISCRSSQSLVHSNGKTYLQWYLQKPGQSPKLLIYKVSNRFSGVPDRFSGSGSGTDFTLKISRVEAEDLGVYFCAQSTHVWTFGGGTKLEIKR
notes: Mouse IgG1
